Where “and” joins values, the source holds several entries; their conditions need not be identical. Identical values can stand only once. Starred links: 1 amine or outer side, 2 acyl side, 3 side chain; linkers in the order of their positions; H or OH if unused. Non-standard residues stand in square brackets, D forms with d. Obtyr = O-benzyl-L-tyrosine, O=C([C@H](Cc1ccc(OCc2ccccc2)cc1)N[*:1])[*:2]; Oetyr = O-ethyl-L-tyrosine, CCOc1ccc(C[C@H](N[*:1])C(=O)[*:2])cc1; 2Nal = N[C@@H](Cc1ccc2ccccc2c1)C(=O)O; Sar = CNCC(=O)O
Legend:
[1] = target: Sushi domains (SD1/2) protein of the GABAB1a (GB1a) subunit, recombinant; test: FP competition with AJAP-1probe
[2] = target: Sushi domains (SD1/2) protein of the GABAB1a (GB1a) subunit, recombinant; test: FP competition
[3] = target: Sushi domains (SD1/2) protein of the GABAB1a (GB1a) subunit, recombinant; test: FP inhibition, six-point, crude peptide of the solution array
[4] = target: Sushi domains (SD1/2) protein of the GABAB1a (GB1a) subunit, recombinant; test: FP competition; remark: listed apart in the source
[5] = target: Sushi domains (SD1/2) protein of the GABAB1a (GB1a) subunit, recombinant; test: FP inhibition
[6] = target: Sushi domains (SD1/2) protein of the GABAB1a (GB1a) subunit, recombinant; test: FP competition; remark: listed apart in the source
[7] = target: Sushi domains (SD1/2) protein of the GABAB1a (GB1a) subunit, recombinant; test: FP competition, N-methylation scan
[8] = target: Sushi domains (SD1/2) protein of GABAB1a (GB1a); test: FP competition vs TAMRA AJAP-1probe
[9] = target: Sushi domains (SD1/2) protein of the GABAB1a (GB1a) subunit, recombinant; test: FP competition; end of the range assigned from the Ki values of Table 2

Sequence of Sushi domains (SD1/2) protein of the GABAB1a (GB1a) subunit, recombinant (Q9Z0U4 29-158): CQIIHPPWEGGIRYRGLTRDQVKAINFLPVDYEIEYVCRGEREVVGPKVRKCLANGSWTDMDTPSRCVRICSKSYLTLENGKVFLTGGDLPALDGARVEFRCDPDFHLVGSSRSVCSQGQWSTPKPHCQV
Sequence of Sushi domains (SD1/2) protein of GABAB1a (GB1a) (Q9Z0U4 29-158): as above

Row | Ki [1] [nM] | Ki [2] | Ki [4] [nM] | Binder | also measured
1 | 23 | 26 nM | – | Ac-TETEFIAWGPTGDED-NH2 [peptide 15 (Ac-…-NH2)] | –
2 | 465 | – | – | Ac-PWAIVWGPTVSREDG-NH2 [peptide 14 (…)] | –
3 | – | 108 nM | – | Ac-EDDSDVWWYGADTD-NH2 [… (APPWT mutant G211Y)] | Ki [3]: 167 nM
4 | – | – | 6.5 | Ac-EDDD[Oetyr]IDWGPTSDDD-NH2 (SMILES CCOc1ccc(C[C@H](NC(=O)[C@H](CC(=O)O)NC(=O)[C@H](CC(=O)O)NC(=O)[C@H](CC(=O)O)NC(=O)[C@H](CCC(=O)O)NC(C)=O)C(=O)N[C@H](C(=O)N[C@@H](CC(=O)O)C(=O)N[C@@H](Cc2c[nH]c3ccccc23)C(=O)NCC(=O)N2CCC[C@H]2C(=O)N[C@H](C(=O)N[C@@H](CO)C(=O)N[C@@H](CC(=O)O)C(=O)N[C@@H](CC(=O)O)C(=O)N[C@@H](CC(=O)O)C(N)=O)[C@@H](C)O)[C@@H](C)CC)cc1) [peptide 34 (Ac-EDDD(Oetyr)…-NH2)] | –
5 | – | – | 5.3 | Ac-EDDD[Oetyr]IDWYDSDDD-NH2 (SMILES CCOc1ccc(C[C@H](NC(=O)[C@H](CC(=O)O)NC(=O)[C@H](CC(=O)O)NC(=O)[C@H](CC(=O)O)NC(=O)[C@H](CCC(=O)O)NC(C)=O)C(=O)N[C@H](C(=O)N[C@@H](CC(=O)O)C(=O)N[C@@H](Cc2c[nH]c3ccccc23)C(=O)N[C@@H](Cc2ccc(O)cc2)C(=O)N[C@@H](CC(=O)O)C(=O)N[C@@H](CO)C(=O)N[C@@H](CC(=O)O)C(=O)N[C@@H](CC(=O)O)C(=O)N[C@@H](CC(=O)O)C(N)=O)[C@@H](C)CC)cc1) [peptide 32 (Ac-EDDD(Oetyr)…-NH2)] | –
6 | – | – | 5.3 | Ac-EDDD[2Nal]IDWGPTSDDD-NH2 (SMILES CC[C@H](C)[C@H](NC(=O)[C@H](Cc1ccc2ccccc2c1)NC(=O)[C@H](CC(=O)O)NC(=O)[C@H](CC(=O)O)NC(=O)[C@H](CC(=O)O)NC(=O)[C@H](CCC(=O)O)NC(C)=O)C(=O)N[C@@H](CC(=O)O)C(=O)N[C@@H](Cc1c[nH]c2ccccc12)C(=O)NCC(=O)N1CCC[C@H]1C(=O)N[C@H](C(=O)N[C@@H](CO)C(=O)N[C@@H](CC(=O)O)C(=O)N[C@@H](CC(=O)O)C(=O)N[C@@H](CC(=O)O)C(N)=O)[C@@H](C)O) [peptide 21 (Ac-EDDD(2Nala)…-NH2)] | –
7 | – | 12 nM | – | Ac-RRRREDDD[2Nal]IDWYDSDDD-NH2 (SMILES CC[C@H](C)[C@H](NC(=O)[C@H](Cc1ccc2ccccc2c1)NC(=O)[C@H](CC(=O)O)NC(=O)[C@H](CC(=O)O)NC(=O)[C@H](CC(=O)O)NC(=O)[C@H](CCC(=O)O)NC(=O)[C@H](CCCNC(=N)N)NC(=O)[C@H](CCCNC(=N)N)NC(=O)[C@H](CCCNC(=N)N)NC(=O)[C@H](CCCNC(=N)N)NC(C)=O)C(=O)N[C@@H](CC(=O)O)C(=O)N[C@@H](Cc1c[nH]c2ccccc12)C(=O)N[C@@H](Cc1ccc(O)cc1)C(=O)N[C@@H](CC(=O)O)C(=O)N[C@@H](CO)C(=O)N[C@@H](CC(=O)O)C(=O)N[C@@H](CC(=O)O)C(=O)N[C@@H](CC(=O)O)C(N)=O) [R4-20 (Ac-RRRREDDD(2Nala)…-NH2)] | fold higher affinity than 4R-16 [5]: 2 fold
8 | 581 | – | – | Ac-EDDSDVWWGGADTDY-NH2 [peptide 13 (…)] | –
9 | 637 | – | – | Ac-AIVWGPTVSREDGGD-NH2 | –
10 | – | – | 62 | Ac-EDDSDVWWGPTGDED-NH2 [hybrid peptide X (Ac-…-NH2)] | fold higher affinity than APPWT [2]: 10 fold
11 | – | 762 nM | – | Ac-PWAIVWGPTVSRED-NH2 [PIANPWT (Ac-…-NH2)] | Ki [6]: 476 nM
12 | – | 161 nM | – | Ac-EDDSDVWWG[Sar]ADTD-NH2 (SMILES CC(=O)N[C@@H](CCC(=O)O)C(=O)N[C@@H](CC(=O)O)C(=O)N[C@@H](CC(=O)O)C(=O)N[C@@H](CO)C(=O)N[C@@H](CC(=O)O)C(=O)N[C@H](C(=O)N[C@@H](Cc1c[nH]c2ccccc12)C(=O)N[C@@H](Cc1c[nH]c2ccccc12)C(=O)NCC(=O)N(C)CC(=O)N[C@@H](C)C(=O)N[C@@H](CC(=O)O)C(=O)N[C@H](C(=O)N[C@@H](CC(=O)O)C(N)=O)[C@@H](C)O)C(C)C) […(N-Me-G)ADTD] | fold increased affinity against APPWT [7]: 3 fold; Ki [8]: 161 nM
13 | 5030 | – | – | Ac-DSADAEEDDSDVWWG-NH2 [peptide 11 (…)] | –
14 | – | 107 nM | – | Ac-RRRRRRRREDDDWIDWYDSDDD-NH2 [R8-16 (Ac-…-NH2)] | fold loss of affinity against the untagged peptide [9]: 12 to 33 fold
15 | – | – | 16 | Ac-EDDSWIWWGPTGDED-NH2 [peptide 27 (Ac-…-NH2)] | fold better affinity than 9 [2]: 3.8 fold
16 | – | – | 557 | Ac-EDDSDVWWGGADTD-NH2 [APPWT (Ac-…-NH2)] | Ki [3]: 635 nM
17 | – | 100 nM | – | Ac-EDDSWVWWGGADTD-NH2 [… (APPWT mutant D207W)] | Ki [3]: 78 nM
18 | – | 32 nM | 31 | Ac-ETEFIAWGPTGDED-NH2 [AJAP-1WT (Ac-…-NH2)] | –
19 | 2630 | – | – | Ac-DDSDVWWGG-NH2 | –
20 | 687 | – | – | Ac-DDSDVWWGGADTDYADG-NH2 | –
21 | 1350 | – | – | Ac-WAIVWGPTVSREDGG-NH2 | –
22 | 73 | – | – | Ac-TTETEFIAWGPTGDE-NH2 | –
23 | 244 | 244 nM and 233 nM | – | Ac-EEDDSDVWWGGADTDYAD-NH2 [Peptide 36 (Ac-…-NH2)] | –
24 | 1300 | – | – | Ac-SADAEEDDSDVWWGG-NH2 [peptide 12 (…)] | –
25 | 1530 | – | – | Ac-ADAEEDDSDVWWGGA-NH2 | –
26 | – | – | 9.5 | Ac-EDDD[Obtyr]IDWGPTSDDD-NH2 (SMILES CC[C@H](C)[C@H](NC(=O)[C@H](Cc1ccc(OCc2ccccc2)cc1)NC(=O)[C@H](CC(=O)O)NC(=O)[C@H](CC(=O)O)NC(=O)[C@H](CC(=O)O)NC(=O)[C@H](CCC(=O)O)NC(C)=O)C(=O)N[C@@H](CC(=O)O)C(=O)N[C@@H](Cc1c[nH]c2ccccc12)C(=O)NCC(=O)N1CCC[C@H]1C(=O)N[C@H](C(=O)N[C@@H](CO)C(=O)N[C@@H](CC(=O)O)C(=O)N[C@@H](CC(=O)O)C(=O)N[C@@H](CC(=O)O)C(N)=O)[C@@H](C)O) [peptide 35 (Ac-EDDD(Obtyr)…-NH2)] | –
